Test: soluble on expression in E. coli; label from the status in PepcDB or PDB records

Sequence | soluble on expression in E. coli
MSLKPEEIVEGLLSGNRRALARAITYVENEYPESKEIMRQIFAKTGRAHVVGLTGFPGVGKSTLVSKLTEEFRRRGKKVGIIAIDPGSPFTGGALLGDRLRLDGMDSRKQLWTDPGIFFRSMSSRGRAGGLAAKTGDVVRLLDAFGFDVILVETVGAGQSEVDIIEVADTSVVVMMPETGDEIQVNKAGILEIGDIYVVNKADLGGAEKVERWLRYMLSLDEESVQMLSQMTHADEARVQSGEFFERRKGWNPPVIKTVADRGEGIKELADAIEEHFDYMKKTGLIEKRRRERVKRELFEIVMNDVIKLVKEKTNYRDLLVKLLKGETDPYTAAEQIVEEVIHNAGKGEGHHHHHH | soluble
GPGSMARNKIALIGSGMIGGTLAHLAGLKELGDVVLFDIAEGTPQGKGLDIAESSPVDGFDAKFTGANDYAAIEGADVVIVTAGVPRKPGMSRDDLLGINLKVMEQVGAGIKKYAPEAFVICITNPLDAMVWALQKFSGLPAHKVVGMAGVLDSARFRYFLSEEFNVSVEDVTVFVLGGHGDSMVPLARYSTVAGIPLPDLVKMGWTSQDKLDKIIQRTRDGGAEIVGLLKTGSAFYAPAASAIQMAESYLKDKKRVLPVAAQLSGQYGVKDMYVGVPTVIGANGVERIIEIDLDKDEKAQFDKSVASVAGLCEACIGIAPSLK | soluble
MGSDKIHHHHHHMAGRFDAFVLFAEMRTGSNYLEDSLNTFADINCLGEVFNPTFIGHDNNFEMLGYDMDRREHDPLGLLDAIIDTVDGLPGFRLFHDHDTRVVDRVLPDPRIAKVILTRNPLDSYVSRKIATATGQWKLTDMKHAKTAQIRFDADEFGALLDAVLPFQEYVRQGLLKSGQVAFQVRYEDINDPEMLNGLAAFLGSDERVERASKTLKRQNPAPLRDKVENYEEMVAALSDLDRFGLDKLPELEPDRGAQVPNFVAHPTLGLLFCPIKGAPEKSVLNWMGALGDVGKDALIRKMTQKQLRQWMKDNPGFRSFTVLRHPVVRAYTVFNRFILPDDRPAYADPRKTLRQRYKVPIPENAPGDGWTEAEQKAAFQGFIFFLKGNLAGQTSVRVDQAWATQTAILQGTSSVMVPQAVIHEDHMTEALPALAHQVGAEDVPQVVEEAMPGLHKLKSIYDGKIEQALIDTYRRDYVGFGFPRWNKR | not soluble
MKAMNKVWVIGDASVDLVPEKQNSYLKCPGGASANVGVCVARLGGECGFIGCLGDDDAGRFLRQVFQDNGVDVTFLRLDADLTSAVLIVNLTADGERSFTYLVHPGADTYVSPQDLPPFRQYEWFYFSSIGLTDRPAREACLEGARRMREAGGYVLFDVNLRSKMWGNTDEIPELIARSAALASICKVSADELCQLSGASHWQDARYYLRDLGCDTTIISLGADGALLITAEGEFHFPAPRVDVVDTTGAGDAFVGGLLFTLSRANCWDHALLAEAISNANACGAMAVTAKGAMTALPFPDQLNTFLSSHSLAQAMTVK | not soluble
MGQTLFDKVWNRHVLYGKLGEPQLLYIDLHLIHEVTSPQAFEGLRLQNRKLRRPDLTFATLDHNVPTIDIFNIKDEIANKQITTLQKNAIDFGVHIFDMGSDEQGIVHMVGPETGLTQPGKTIVCGDSHTATHGAFGAIAFGIGTSEVEHVFATQTLWQTKPKN | not soluble
MSYSSQGVVEKGKVMPGDVLATIEEFLPGEGVYVDPVKGFIRAAAPGVAYLDMSRRIAYVKPHKKPQTPGPGSEVAALVTGVRGDLVVAEVYGVVRLSPKPAWLYELPSPYSAAIPISQIADEYIKNIEDYYRMGDWILAKIVSRTPPFTLSTVEPRYGVVYAICSRCGAVMEFQSERSMKCPKCGNVEKRKVSIHAKSRHLRIRLVRNLVIYRS | soluble
MSKRVRSSLILPAVCGLGLAAVLLSSCSSKAPQQPARQAGISGPGDYSRPHRDGAPWWDVDVSRIPDAVPMPHNGSVKANPYTVLGKTYYPMNDARAYRMVGTASWYGTKFHGQATANGETYDLYGMTAAHKTLPLPSYVRVTNLDNGKSVIVRVNDRGPFYSDRVIDLSFAAAKKLGYAETGTARVKVEGIDPVQWWAQRGRPAPMVLAQPKQAVAQAAPAAAQTQAVAMAQPIETYTPPPAQHAAAVLPVQIDSKKNASLPADGLYLQVGAFANPDAAELLKAKLSGVTAAPVFISSVVRNQQILHRVRLGPIGSADEVSRTQDSIRVANLGQPTLVRPD | not soluble
MAVIVLAGTIGAGKSSLTALIANRLGSEAFYESVDDNEVLPLFYAEPEKYAFLLQIYFLNKRFDSIKQALTHENNVLDRSIYEDSLLFHLNADLGRANETEVKVYDDLLQNMLQELPYAAHKKRPDLLVHIRISFPKMLERIKKRGRPYEQIETDPTLYDYYQMLNERYDQWYEDYDESPKIQIDGDKYDFVEDPEACQYVLALIEKKIEELER | not soluble
MAHHHHHHMTHTGAAAASGASASTLSSQSTAAVASDDAFSEQHQGQKQRNLLRCFALADLLGVSPTVVQQLANAAATPSSSLHHARNTSRASSHCSTESDPVIRAYQLEQILVAAVVKQLFDRCCDPDQSIQNGGSVDAGQPAASSVSTTARQPARKHQPSSLKAPPWSAALSEPRRACTSPQQPDGERLLPSVLSSPQGVARVDALHASFLPLLLVALLQRVSEGSGGDTQATDATVPRQTPDTNAAASNTSAAVFSLRQQRSFRTALHQLLPLYTPLLLQRRRAARAVVSSVVVALQEYPCSGHDDGESTTEEEESRKRIQRLVHQGLCCSEVKQWLHAARLLSDTLVACLSHVSPRASIAATAPPPAIRRRRGGRGRFDGGAVDTGDGRGVAECGRDAPPRWRVGGGGAASVRSLVVGIRYERFEWCRAARARRQHPCKCWGPNEPTRAVHHHHHCRGARACRGHVYRRRGDVRRHLAPRGWPFWRTAAAATVELCSCWWSHSADTTRCTDTLSR | not soluble
MDVSYYDGPKDEVAEAMLKSAVTAMRLGQYEDGKGRLEEIMEFGTSNFQLLGTIYMYYGRVCRHLNHDAKALEFFEHELNMFKLIFNYPEACDSTRRIVEQALKMGKFPKARRFAEDLIDYTSNKKNGEKYIGQARILFASVCLEGCERDVESNQDEKKKLLSICAEQIAAVKLFNENNTEGAVSETKIMLLEAKCLSLDEKYEESRRKYQECIDFAIKTDQFEAVHIAYYDKALYAETDLLFFIIRDLRSALFYATKFGKERDVVKYKSKLSEEMLRNGEFHEAYLYGLEALVSIRKLGLNEYIGDVLLTIAKCLIALGKRRQAAYFIILGSVLTINQNSFKLFYEQIDVAMNQERSETATDQDVCLAIDSSPDPTSSNDMINKFVVELEHATNVETWEMIVNGIIDDQKKPVAIEKKENEEPVDMMDLIFSMSSRMDDQRTELPAARFIPPRPVSSASKKTTKSHRILPGLRANWTKVQSMKFDGHTMNRILKRSKKSKSSLDSTNSMQGDDTRSDDVTMTSK | not soluble
MNTVRWNIAVSPDVDQSVRMFIAAQGGGRKGDLSRFIEDAVRAYLFERAVE | soluble
MSVTMSEAFDYSMIDNILSEHGTSETAIIAILQSIQEEYHYIPKEVFPYLSKKLKVSEARIFSVATFYENFSLEPKGKYIIKVCDGTACHVRKSIPIIERLRKELGLSGTKPTTDDLMFTVETVSCLGACGLAPVITVNDKVYAEMTPDKASELIKQLREGDADA | not soluble
MSANGCCCCGGVDSREQKLNEIIEKYKNTKGALVPVLHEAQEVYGYLPLEVQKKIAEGLNIPLAEVYGVVTFYTQFSLNPKGKYKIQVCMGTACYVKGSGAILEKLKEKLEIDVGECTSDGKFSLEACRCIGACGLAPVIMINDDVYGRLVPDDIEGIIEKYKKE | soluble
MWDKRELTDLAIISAIGIDRTNDSNYVLHLQIINPGNVAGGLQGGGAGDRPPVSVYSIEGNNITEALRKASMKVSRRLYFAHTNLVVINEKLAKEEGLDFVLDNLDRDTEFRTTATFVVAHKTKAENIVKILTPIDKIPSNKVNKTLDFTEAQYGRVVKINIQDVLKTLAANTMAPVIPGYMMIGDDKKGVSMENTQATDPKAILQADGLAVFDKAGYLKYWLEDDESVGAVWLMNKIQHTFINADWGKTKDAVSLQVTHQDTKLVPKMRNGRPYIHVKVSVEGIIDAVKYPFQLSDPKVLAAIEKALNKELEKEISHTVKKIKKNKIDFIGFGDTIYRKYPEQWEKMKDTWDKEYLPELPIDVKAETYIRRTGLRNNPIKHQFKDDLEHHHHHH | not soluble
MANIYLNIEADSAQELKEILSQLATDNVVEVTQSLNTADKKATEEVEKAAKKEPAKKKKATAKKKEEVSTASTSDTEPSKTGEKVAPTDSETEEVSATADLHLGATKADVQEAMRKAMDKGKRPMIKTCFSRYNAEKLSDLKEEHYGKFITDLETLVGE | not soluble
AVSSATLEMESQRDEVAGLVRLGLSQSFGTLHIIPAIQELRELYPQLQVEVHLFDYKVDMLAEGLDLWVTNNEHLPEGYIAQRLTDCQFVVAASPDYLLKYDTPTEPNDLSLHNCLIYRSWERDYTGWAFTKGQQELNVKVSGNYSVDLAEAVRDAAIAGWGIAYLATYLLGDEFRTGKLIQLLPDWKASQSMPFYAVYPSRQHMPKKISAVINFIKQKIGNPCHWDQRLAPYISIPK | not soluble
MIVRTLLDTDLYKFTTSYAYIKLFPYAMGTFSFNDRNETEYTEEFLEALKSEFNKLSRLRLTEEELEYMTRNCRFLPRVYWEWLSSFRFDPDKIDIHLDTTGRLHIEVSDFLYKVTLYEVPLLAIVSEIKNKFFGNVPDMSEILCKLSEKVELSNQHQLRFSEFGTRRRFSIDVQETVIKRLNDTAKYCTGTSNCYFAMKYGMKMMGTHPHEWFMFHGAQFGYKHANYMALENWVNVYDGDLGIALSDTYTSGIFLSNLSRKQAKLFDGVRCDSGNEFDFIDKLVARYKELGIDATTKTIVFSNALDFTKALEIQEYCKDKIRCSFGIGTNLTNDTGFAPSNIVMKLTQCKMNVNQEWRECIKLSDDEGKHTGSPEEVQACLYELRLAKLEHHHHHH | soluble
MGSDKIHHHHHHMIVKEINPHFEDYVFNWEQTYQFLVGGYGSSKSYHTALKIVLKLLKEKRTALVIREVFDTHRDSTFALFQEVIEELGLTKAVASLSSPLQLRFHNGSRIMFKGMDNPAKLKSVHNISLIWIEECSEVKYEGFKELIGRLRHPELKLHMICTTNPVGTSNWTYRHFFRDERKKRFVLDDSELYEKRTIVKGDTYYHHSTANDNLFLPESYVKQLDGLKEYDPDLYRIARKGRFGVNGIRVLPQFEVLPHDQVKKCIAAISKPIFRTGMDFGFEESYNAVVRLAVDPEKKYLYIYWEYYQNKMTDDRTAEELREFIETQELIKADSAEPKSIQYFRQQGFRMVGARKFPGSRLQYTKKVKRFKKIFCSDRCENVIYELETLTYAKDKNGALIEDEFTIDPHTLSAIWYALDDYEVADMKETAHKRMRPNRERRRS | not soluble
MTKIRQKSRKPGRTSRAKPVVAVVWYEDEQEWRAMRDLADDPERFEDSYEAWLTMFDRSLERLREGGAFPVRTPCNATKYREWCESKARSFDACSRSEYAAREFQARATQDE | not soluble
MSLDKFQLKGKVALVTGCKRGIGKAMAIGLAEAGADIIGVSASLELEGSSVEQAIRATGRNFKAYQCDFSDRKSLYNFINSVKADYSRIDILVNNAGTILRTPAAEHPDEMWDKVIEVNQNAQFILTRELGKEMVSRGEGKVIFTASLLTFQGGITVPGYAASKGAIGQMTMAFANEWASKGVNVNAIAPGYISTDNTEALRNDPDRSASILSRIPAGRWGEAEDFAGPVVFLASEAAAYMHGSIMLVDGGWMGREGHHHHHH | soluble
GLDNELSLVDGQDRTLTVQQWDTFLNGVFPLDRNRLTREWFHSGRAKYIVAGPGADEFEGTLELGYQIGGPGIQEVATFSVDVSGAEGGVAVSNAHGTVTGAAGGVLLRPFARLIASTGDSVTTYGEPWNMN | soluble

Source: the DeepSol protein solubility set
